Test results as given in publication PMC4562236.

Experiments:
[1] = system: T1, His-ArsR (Bacillus sp. CDB3), ORF:1234e343; assay: EMSA; settings: 10 mM Tris-HCl pH 7.6, 80 mM KCl, 0.2 mM EDTA, 0.2 mM DTT, 10% glycerol, 0.75 µM BSA, 30 µL, on ice 30 min; 6% native acrylamide gel in TBE pH 8.3
T1 sequence: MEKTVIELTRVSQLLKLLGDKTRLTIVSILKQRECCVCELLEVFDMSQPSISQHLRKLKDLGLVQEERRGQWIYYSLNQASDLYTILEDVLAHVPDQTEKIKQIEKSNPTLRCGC

[2] = system: T2, His-ArsD (Bacillus sp. CDB3), ORF:bd8c364d; assay: EMSA; settings: 10 mM Tris-HCl pH 7.6, 80 mM KCl, 0.2 mM EDTA, 0.2 mM DTT, 10% glycerol, 0.75 µM BSA, 30 µL, on ice 30 min; 6% native acrylamide gel in TBE pH 8.3
T2 sequence: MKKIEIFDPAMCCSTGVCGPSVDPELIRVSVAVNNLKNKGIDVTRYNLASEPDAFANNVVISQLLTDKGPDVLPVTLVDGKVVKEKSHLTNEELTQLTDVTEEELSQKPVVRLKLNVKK

Row | Sequence | binding [1] | binding [2]
1 | TGAGACTGCTATGAAAGAAAACGGTGTTTCAACATTACGTTTTACATTTGATGGTGCTGGATGCTGTGGCCCTAGTTACGGTATTAATTTAGGTGAAGCACAAGAAAATGATGTCACAGAAACAGTCTAGAC (double strand) [proN] | no binding | 
2 | TTCAGTTGAATATATAAGCGGTTAATTATATACTTATTTCAAGAGGGAGAGAAAATTAAATATGAATCCATTTAATGAATATTACGTTTAATTTTTACTCAACATATAAGTATATGCTTATGCAATTATGAAAAGGAGGTATAGATATGGCTCTAGATA (double strand) [proR] | binds | no binding
